Source: US20220259593A1, “CONTROL OF MAMMALIAN GENE DOSAGE USING CRISPR” (The Regents of the University of California, priority 2019, published 2022)

Tested on: K562 CRISPRi cells
Assay: Constant region variant library pooled growth screen, K562
Type: cell-based, human
Conditions: sgRNA constant region variants; activity relative to the original, un-modified constant region cr995
Procedure, shortened: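 Library of sgRNA constant-region variants, each paired with 36 targeting sequences (essential-gene and non-targeting), transduced in duplicate into K562 CRISPRi cells, puromycin-selected and grown 4–8 days at >2000× coverage. Activity per variant is its growth phenotype normalised to the same targeting sequence with unmodified constant region.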

Molecule | Mean relative activity
cr083 (nucleic acid, listed as DNA, chemistry not fully specified) guide: GTGTGAGAGCTAAGCTGGAAACAGCATAGCAAGTTTAAATAAGGCTAGTCCGTTATCAACTTGAAAAAGTGGCACCGAGTCGGTGCT | 0.001403
cr497 (nucleic acid, listed as DNA, chemistry not fully specified) guide: GTTTAAGAGCTAAGCTGGAAACAGCATAGCAAGTTTAAATAAGGCTAGTCCGTTATCAACTTGAGAAAGTGGAACCGAGTCGGTTCT | 1.028
cr039 (nucleic acid, listed as DNA, chemistry not fully specified) guide: GATTATGAGCTAAGCTGGAAACAGCATAGCAAGTTTAAATAAGGCTAGTCCGTTATCAACTTGAAAAAGTGGCACCGAGTCGGTGCT | −0.0006181
cr053 (nucleic acid, listed as DNA, chemistry not fully specified) guide: GATTCAGAGCTAAGCTGGAAACAGCATAGCAAGTTTAAATAAGGCTAGTCCGTTATCAACTTGAAAAAGTGGCACCGAGTCGGTGCT | −0.003704
cr894 (nucleic acid, listed as DNA, chemistry not fully specified) guide: GTTTAAGAGCTAAGCTGGAAACAGCATAGCAACTTTAAATAAGGCTAGTCCGTTATCAATTTGAAAAAATGGCACCGAGTCGGTGCT | −0.003408
cr431 (nucleic acid, listed as DNA, chemistry not fully specified) guide: GTTTAAGAGCTAAGCTGGAAACAGCATAGCAAGGTTAAATAAGGCTAGTCCGTTATCAACTTGAGAAAGTGGCACCGCGTCGGTGCT | −0.0002713
cr921 (nucleic acid, listed as DNA, chemistry not fully specified) guide: GTTTAAGAGCTAAGCTGGAAACAGCATAGCAAAGTTAAATAAGGCTAGTCCGTTATCAACTTGAAAAAGTGGCACCGAGTCGGTGCT | −0.002203
cr787 (nucleic acid, listed as DNA, chemistry not fully specified) guide: GTTTAAGAGCTAAGCTGGAAACAGCATAGCAACTTTAAATAACGCTAGTCGGTTATCAACTTGAAAAAGTGGCACCGAGTCGGTGCT | 0.0008483
cr178 (nucleic acid, listed as DNA, chemistry not fully specified) guide: GTTTAAGAGCTAAGCTGGAAACAGCATAGCAATTTTAAATGAGGCTAGTCCGTTATCGACTTGAAAAAGTGGCACCGAGTCGGTGCT | −0.0008744
cr235 (nucleic acid, listed as DNA, chemistry not fully specified) guide: GTTTAAGAGCTAAGCTGGAAACAGCATAGCAAGTTTAAATAAGGCTAGTCCGTTATCAACATGAGAATGTGGCACCGAGTCGGTGCT | 1.027
cr058 (nucleic acid, listed as DNA, chemistry not fully specified) guide: GTTGCAGAGCTAAGCTGGAAACAGCATAGCAAGTTTAAATAAGGCTAGTCCGTTATCAACTTGAAAAAGTGGCACCGAGTCGGTGCT | −0.003151
cr099 (nucleic acid, listed as DNA, chemistry not fully specified) guide: GTTTAAGAGCTAAGCTGGAAACAGCATAGCAATTTTAAATAAGGCTAGGCCGTTATCAACTTGAAAAAGTGGCACCGAGTCGGTGCT | 0.0005052
cr847 (nucleic acid, listed as DNA, chemistry not fully specified) guide: GTTTAAGAGCTAAGCTGGAAACAGCATAGCAAGCTTAAATAAGGCTAGTCCGTTATCAACTTGAAAAAGTGGCACCCAGTGGGTGCT | −0.002682
cr817 (nucleic acid, listed as DNA, chemistry not fully specified) guide: GTTTAAGAGCTAAGCTGGAAACAGCATAGCAAGGTTAAATAGGGCTAGTCCGTTATCAACTTGATAAAGTGGCACCGAGTCGGTGCT | −0.002514
cr035 (nucleic acid, listed as DNA, chemistry not fully specified) guide: GTTGATGAGCTAAGCTGGAAACAGCATAGCAAGTTTAAATAAGGCTAGTCCGTTATCAACTTGAAAAAGTGGCACCGAGTCGGTGCT | 0.0006927
cr579 (nucleic acid, listed as DNA, chemistry not fully specified) guide: GTTTAAGAGCTAAGCTGGAAACAGCATAGCAAGTTTAAATAAGGCTAGTCCCATATCAACTTGAAAAAGTGGCACCGAGTCGGTGCT | −0.000418
cr326 (nucleic acid, listed as DNA, chemistry not fully specified) guide: GTTTAAGAGCTAAGCTGGAAACAGCATAGCAAGCTTAAATAACGCTAGTCGGTTATCAACTTGAAAAAGTGGCACCGAGTCGGTGCT | −0.001062
cr912 (nucleic acid, listed as DNA, chemistry not fully specified) guide: GTTTAAGAGCTAAGCTGGAAACAGCATAGCAAGCTTAAATGAGGCTAGTCCGGTATCAACTTGAAAAAGTGGCACCGAGTCGGTGCT | −1.05E−05
cr751 (nucleic acid, listed as DNA, chemistry not fully specified) guide: GTTTAAGAGCTAAGCTGGAAACAGCATCGCAACTTTAAATAAGGCTAGTCCTTTATCAACTTGAAAAAGTGGCACCGAGTCGGTGCT | −0.000557
cr637 (nucleic acid, listed as DNA, chemistry not fully specified) guide: GTTTAAGAGCTAAGCTGGAAACAGCATATCAAGATTAAATAAGGCTAGTCCGTTATCAACTTGAGAAAGTGGCACCGAGTCGGTGCT | −0.001265
cr122 (nucleic acid, listed as DNA, chemistry not fully specified) guide: GTTTAAGAGCTAAGCTGGAAACAGCATAGCAACTTTAAATAAGGCTAGTCCGTTATTAACTTGATAAAGTGGCACCGAGTCGGTGCT | −0.003408
cr828 (nucleic acid, listed as DNA, chemistry not fully specified) guide: GTTTAAGAGCTAAGCTGGAAACAGCATAGCAGGTTTAAATAAGGCTAGTCCGTTATCAACTTGAAAAAGTGGCACCGAGTCGGTGCT | 1.028
cr564 (nucleic acid, listed as DNA, chemistry not fully specified) guide: GTTTAAGAGCTAAGCTGGAAACAGCATAGCAAGGTTAAATAAGGCTAGTCCGTTATCAACTTGAAAAAGTGGCAGCGAGTCGCTGCT | −0.001952
cr535 (nucleic acid, listed as DNA, chemistry not fully specified) guide: GTTTAAGAGCTAAGCTGGAAACAGCATAGCAAGTTTAAATAAGGCTAGTCAGTTATCAACTTGAAAAAGTGGCACCGAGTCGGTGCT | −0.0004281
cr065 (nucleic acid, listed as DNA, chemistry not fully specified) guide: GTATACGAGCTAAGCTGGAAACAGCATAGCAAGTTTAAATAAGGCTAGTCCGTTATCAACTTGAAAAAGTGGCACCGAGTCGGTGCT | −0.003148
cr595 (nucleic acid, listed as DNA, chemistry not fully specified) guide: GTTTAAGAGCTAAGCTGGAAACAGCATAGCAAGTTTAAATAACGCTAGTCCGTTATCAACTTGAAAAAGTGGCACCGAGTCGGTGCT | −0.002984
cr629 (nucleic acid, listed as DNA, chemistry not fully specified) guide: GTTTAAGAGCTAAGCTGGAAACAGCATAGCAACTTTAAATAAGGCTAGTCCGTTATCAAATTGAAAAATTGGCACCGAGTCGGTGCT | −5.97E−5
cr939 (nucleic acid, listed as DNA, chemistry not fully specified) guide: GTTTAAGAGCTAAGCTGGAAACAGCATAGCAACTTTAAATAAGGCAAGTCCCTTATCAACTTGAAAAAGTGGCACCGAGTCGGTGCT | 4.94E−05
cr106 (nucleic acid, listed as DNA, chemistry not fully specified) guide: GTTTAAGAGCTAAGCTGGAAACAGCATAGCAAGGTTAAATAAGTCTAGTACGTTATCAACTTGAAAAAGTGGCACCGAGTCGGTGCT | 0.001355
cr233 (nucleic acid, listed as DNA, chemistry not fully specified) guide: GTTTAAGAGCTAAGCTGGAAACAGCATAGCAACTTTAAATAAGGCTAGTCCGTTATCAACTTGAAAAAGTGGCACCCAGTGGGTGCT | −0.003511
